US20030229922A1, “Materials and methods for the modification of plant cell wall polysaccharides” (GENESIS RESEARCH AND DEVELOPMENT CORPORATION LTD., priority 1998, published 2003)

Substrate: O=P(O)(O)O[C@H]1O[C@H](CO)[C@@H](O)[C@H](O)[C@H]1O
Assay: purified protein, by the assay type
Conditions: other: E. grandis UGP; SEM 0.002

B1: Eucalyptus grandis UGP (UDP-glucose pyrophosphorylase), SEQ ID NO: 79 (DNA; protein SEQ ID NO: 103) (Eucalyptus grandis) (protein)
chain: VLFTHLPPQKPNRISLLLFFIFHITTFLLLLLLLSVLSTFISIAVSLSDPELFFASPPMAAAATLSAPDAAKLSQLKSAVSGLGQISESEKNGFINLVSRYLSGEAQHVDWSKIQTPTDEIVVPYDSLAPTPQDPAATKSLLDKLVVLKLNGGLGTTMGCTGPKSVIEVRNGLTFLDLIVIQIENLNTKYGCNVPLLLMNSFNTHDDTLKIVEKYANSNIDIHTFNQSQYPRLVVEDFMPLPCKGQTGKDGWYPPGHGDVFASLMNSGKLDALLSQGKEYVFAANSDNLGAIVDLKILNHLMTNKNEYCMEVTPKTLADVKGGTLISYEGKVQLLEIAQVPDEHINEFKSIEKFKIFNTNNLWVNLKAIKRLVEAQALKMEIIPNPKEVDGIKVLQLETAAGAAIKFFDNAIGINVPRSRFLPVKATSDLLLVQSDLYTLVDGFVERNKARTNPSNPSIELGPEFKKVGNFLSRFKSIPSIIELDSLKVSGDVWFGTGITLKGKVTIAAKPGVKLEIPDGVVLENKEIHGPEDL
**Q.** For B1, which Km is on record?
**A.** The Km was 126 µM.
